Measured values taken from patent US20140148355A1 (UNIVERSITY OF OSLO, published 2014).
Square brackets hold non-standard residues; d marks the D form. Ends that are not written are not given here. Lys(Me) = CNCCCC[C@H](N)C(=O)O

T1: ASHH2 CW domain (13C/15N labelled, cleaved from GST with thrombin) (Arabidopsis thaliana, UniProt Q2LAE1 850-937, limits assumed, 13C and 15N isotope labelled; binds one Zn2+ through Cys868, 871, 893, 904)
T1 construct: domain: CW domain; Free CW domain used for NMR; The structure is deposited as PDB 2l7p (printed '217p')
T1 sequence (looked up): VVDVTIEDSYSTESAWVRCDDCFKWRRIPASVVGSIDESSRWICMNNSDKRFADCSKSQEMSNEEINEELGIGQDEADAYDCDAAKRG


Legend:
[1] = target: histone H3 monomethylated on lysine 4 in Arabidopsis seedling chromatin (nucleosomes) (Arabidopsis, UniProt P59226 2-136); assay: chromatin pull-down from Arabidopsis seedlings, quantified western blot
[2] = target: histone H3 dimethylated on lysine 4 in Arabidopsis seedling chromatin (nucleosomes) (Arabidopsis, UniProt P59226 2-136); assay: as above
[3] = target: histone H3 trimethylated on lysine 4 in Arabidopsis seedling chromatin (nucleosomes) (Arabidopsis, UniProt P59226 2-136); assay: as above
[4] = target: T1, ASHH2 CW domain (13C/15N labelled, …); assay: NMR, 15N-1H HSQC chemical shift changes, peptide:CW about 1.1:1

Binder	bound chromatin relative to input chromatin [1]	bound chromatin relative to input chromatin [2]	bound chromatin relative to input chromatin [3]	binding result [4]
GST-ASHH2-CW (other, Arabidopsis thaliana, UniProt Q2LAE1 850-937, looked up, domain: CW domain; Expressed in bacteria from pSXG (Eco RI/Bam HI); also called GST-CWASHH2; GST-tagged ASHH2 CW protein; not shown: glutathione-S-transferase (GST) tag encoded by the pSXG vector) VVDVTIEDSYSTESAWVRCDDCFKWRRIPASVVGSIDESSRWICMNNSDKRFADCSKSQEMSNEEINEELGIGQDEADAYDCDAAKRG	4.4 times of input material (2.5%)	3.3 times of input material (2.5%)	2.1 times of input material (2.5%)	–
ART[Lys(Me)]QTARKSTGGKAY (Bought from CASLO and used for NMR at about 1.1:1 with the CW domain; also called histone H3K4me1 peptide (1-15); monomethylated H3K4 peptide) [synthetic H3 peptide (residues 1-16) ARTK(me1)QTARKSTGGKAY]	–	–	–	binds
